For experiment [1], the target named is T1, soluble FZD10 protein without the signal peptide (the region of amino acids 21 to 161) (human, UniProt Q9ULW2 21-161).
T1 construct: Immunogen and ELISA screening antigen; also called recombinant human FZD10 protein; N-terminal extracellular domain peptide of FZD10
T1 sequence: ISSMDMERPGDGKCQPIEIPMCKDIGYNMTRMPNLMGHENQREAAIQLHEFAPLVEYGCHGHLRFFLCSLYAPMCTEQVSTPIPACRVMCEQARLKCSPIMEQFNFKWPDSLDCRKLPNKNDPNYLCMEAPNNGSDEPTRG
Briefly: ELISA screening of hybridomas on soluble FZD10 protein. For orientation: In an ELISA, binding on a coated surface is turned into a signal by an enzyme label.

For experiment [2], the target named is T2, full length FZD10 protein (human) (human, UniProt Q9ULW2 21-581).
T2 construct: Live cells in flow cytometry; formalin-fixed paraffin sections in IHC
T2 sequence: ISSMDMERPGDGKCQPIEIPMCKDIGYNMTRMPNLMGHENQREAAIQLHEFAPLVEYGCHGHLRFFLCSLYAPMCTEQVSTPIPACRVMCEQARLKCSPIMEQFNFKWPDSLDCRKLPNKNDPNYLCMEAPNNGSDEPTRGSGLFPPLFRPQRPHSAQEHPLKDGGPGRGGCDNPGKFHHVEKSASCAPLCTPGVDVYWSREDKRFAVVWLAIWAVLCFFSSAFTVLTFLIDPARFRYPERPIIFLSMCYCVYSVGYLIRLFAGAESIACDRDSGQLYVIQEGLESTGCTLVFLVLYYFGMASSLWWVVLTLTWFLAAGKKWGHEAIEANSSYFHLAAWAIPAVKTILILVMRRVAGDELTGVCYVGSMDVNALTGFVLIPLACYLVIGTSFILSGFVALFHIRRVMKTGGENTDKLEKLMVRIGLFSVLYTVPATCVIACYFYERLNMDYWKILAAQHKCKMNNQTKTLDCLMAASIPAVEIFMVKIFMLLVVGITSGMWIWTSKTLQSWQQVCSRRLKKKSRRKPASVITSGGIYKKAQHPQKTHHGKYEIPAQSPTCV
Nature of the experiment: immunohistochemical staining, paraffin section of a clinical lung cancer specimen. The method, then:
For antigen retrieval treatment, sections immersed in Antigen Retrieval Solution pH9 (Nichirei Biosciences Inc.) were incubated at 125° C. for 30 seconds for FZD10/DLD1 and Mock/DLD1, and at 95° C. for 40 minutes for SYO1, T.T, H727, LoVo, COLO201, and clinical specimens. After incubation, they were allowed to stand at room temperature for 20 minutes, and then washed with running water for five minutes. The sections were immersed in 3.0% hydrogen peroxide for ten minutes to block endogenous peroxidases, and washed with Wash Buffer (TBS-T(Takara Bio)) for five minutes three times. Furthermore, to block nonspecific reactions, an appropriate amount of Protein Block Solution (Dako) was added dropwise onto the sections, and they were allowed to stand for ten minutes. […]
The specificity of the anti-FZD10 antibody of the present invention (10A8H4G4) in immunohistochemical staining was evaluated using paraffin sections prepared from mouse xenograft tumors of cancer cell lines and clinical lung cancer specimens. The expression of FZD10 protein and RNA in paraffin sections prepared from mouse xenograft tumors of SYO-1 and COLO201 and in cancerous and non-cancerous regions of clinical lung cancer specimens 1 to 6 was detected by immunohistochemical staining and real-time PCR, respectively, and the results are shown in FIG. 4.

B1: anti-FZD10 antibody (10A8H4G4) (antibody, V domains shown)
VH: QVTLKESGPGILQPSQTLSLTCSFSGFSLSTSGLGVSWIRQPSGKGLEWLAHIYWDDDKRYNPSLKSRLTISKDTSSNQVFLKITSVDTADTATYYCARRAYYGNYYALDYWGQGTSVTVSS
VL: DIVMTQSPSSLTVTAGEKVTMSCKSSQSLLNSGNQKNYLTWYQQKPGQPPKLLIYWASTRKSGVPDRFTGSGSGTDFTLTISSVQAEDLAVYYCQNDYSYPVTFGAGTKLELKR
notes: Mouse monoclonal antibody from hybridoma 10A8H4G4, purified from culture fluid on a Protein A column; it was detected with anti-mouse IgG (H+L); also called clone 10A8H4G4; FZD10Ab(10A8H4G4)
As to B1, the binding result in experiment [1] and in experiment [2] was “binds” throughout.

Source of the values: US20200174002A1 (ONCOTHERAPY SCIENCE, published 2020).
